Laboratory results taken from patent US12630596B2, “Engineered lysin-human defensin protein” (priority 2018, dated 2026).
Entries after “also recorded” stand apart in the source; their conditions may differ.

How the values were obtained:
C. difficile R20291 [1] = assay: Minimum inhibitory concentration (MIC) on strain R20291; assay type: cell-based, Clostridium difficile; details: strain R20291, BHIS, 37° C. for 18 h
Description: The minimum inhibitory concentrations (MICs) of LHD and LCD were determined using the protocol of Wiegand, et al. (Wiegand, Hilpert et al. 2008) with some modifications, as described previously (Gilmer, Schmitz et al. 2017). In brief, strain R20291 was grown in BHIS and adjusted to ˜5×10^5 cells/ml in BHIS, and distributed into the wells of a 96-well round bottom polystyrene microtiter plate. In the wells of each row, either sterile-filtered lysin or control vehicle (metronidazole, vancomycin and fidaxomicin) was added with a final concertation varied from 200 μg/ml to 0.19 μg/ml (2-fold dilution) (Wiegand, Hilpert et al. 2008). The plates were incubated at 37° C. for 18 h. The MIC was “the lowest or minimum concentration of lysin or control vehicle that prevented the formation of a cell pellet (a measure of growth) on the bottom of the wells” (Gilmer, Schmitz et al. 2017). The MICs were also confirmed by measuring the OD600 values using a Bio-Rad plate reader (Bio-Rad, Hercules, CA).

C. difficile R20291 [2] = assay: Lytic activity of LHD after incubation with mouse intestinal contents; assay type: in vitro ADME; details: 37° C., 1 hr
Description: Protein LHD was incubated with mouse intestinal contents at 37° C. for 15, 30 or 60 minutes, then optical drop assays were performed on C. difficile R20291 to test the lytic activity of LHD at a concentration of 100 μg/ml. Experiments were repeated 3 times, and representative data were shown.
To appreciate the stability and activity of LHD in the mouse intestine, […] was incuated with freshly prepaerd mouse intestinal contents for 15 min, 30 min and 60 min, and retrived by centrifugation. Lytic activities of LHD treated with intestinal contents were determined on strain C. difficile R20291 as described above.

C. difficile R20291 [3] = assay: Optical drop assay, lytic activity on C. difficile R20291; assay type: cell-based, Clostridium difficile; details: strain R20291, 200 μg/ml
Description: (§1) The lytic activity of proteins LHD and LCD against C. difficile strains was determined as previously described (Wang, Euler et al. 2015). Briefly, C. difficile strains were cultured in an anaerobic chamber to mid-log phase, and the bacterial pellets were harvested by centrifugation at 3000×g for 5 min. Pellets were washed twice and re-suspended in sterilized ddH2O, and resuspensions were not buffered. Prior to tests, bacterial optical density at 600 nm (OD600) was adjusted to approximately 0.8-1.0. Proteins LHD and LCD were added into the cell re-suspension with the final concentration of 200 μg/ml. The drop in OD600 at 37° C. was measured every 10 minutes for 60 min˜90 min. Bacterial re-suspension with sterilized water was also set as a control. Three repeats were included in each test.

[4] = tested on: C. difficile strains M120, VPI 10463, CD630, LC693, 1377; assay: Optical drop assay, lytic activity on other clinical epidemic C. difficile strains; assay type: cell-based, Clostridium difficile
Text: C. difficile strains R20291 (ribotype 027), M120 (ribotype 078), VPI 10463 (ribotype 087; ATCC 43255), CD630 (ribotype 012), LC693 (ribotype unknown, ST201), and 1377 (ribotype 012) were used in this study. Strains M120 and VPI 10463 were provided by Dr. Joseph A. Sorg from Texas A&M University. Strains R20291 and CD630 were provided by Dr. Abraham L. Sonenshein from Tufts University. Strains 1377 and LC693 were epidemic clinical strains in China (Li, Liu et al. 2015, Peng, Liu et al. 2017).
as §1

C. difficile R20291 [5] = assay: Lytic activity of LHD on R20291 in different pH conditions; assay type: cell-based, Clostridium difficile
Description: Prior to tests, bacterial optical density at 600 nm (OD600) was adjusted to approximately 0.8-1.0. Protein LHD was added into the cell re-suspension with the final concentration of 200 μg/ml. The drop in OD600 at 37° C. was measured once per 20 minutes for 60 min. Bacterial re-suspension with sterilized water was also set as a control. Data are present as “Mean±SD”. Experiments were repeated 3 times, and representative data were shown.
Prior to tests, bacterial optical density at 600 nm (OD600) was adjusted to approximately 0.8-1.0. Protein LHD was added into the cell re-suspension with the final concentration of 100 μg/ml. The drop in OD600 at 37° C. was measured once per 20 minutes for 60 min. Bacterial re-suspension with sterile water was also set as a control. Experiments were repeated 3 times, and representative data were shown. […]

[6] = target: Clostridium difficile toxin B (TcdB) (Clostridioides difficile, UniProt P18177); assay: Inhibition of TcdB cytotoxicity in CT26 cells (cell rounding, non-glucosylated Rac1 Western blot); assay type: cell-based; details: pre-treatment 750 ng/ml 1 hr, TcdB 15 ng/ml 5 hrs
Sequence of Clostridium difficile toxin B (TcdB) (P18177 whole entry): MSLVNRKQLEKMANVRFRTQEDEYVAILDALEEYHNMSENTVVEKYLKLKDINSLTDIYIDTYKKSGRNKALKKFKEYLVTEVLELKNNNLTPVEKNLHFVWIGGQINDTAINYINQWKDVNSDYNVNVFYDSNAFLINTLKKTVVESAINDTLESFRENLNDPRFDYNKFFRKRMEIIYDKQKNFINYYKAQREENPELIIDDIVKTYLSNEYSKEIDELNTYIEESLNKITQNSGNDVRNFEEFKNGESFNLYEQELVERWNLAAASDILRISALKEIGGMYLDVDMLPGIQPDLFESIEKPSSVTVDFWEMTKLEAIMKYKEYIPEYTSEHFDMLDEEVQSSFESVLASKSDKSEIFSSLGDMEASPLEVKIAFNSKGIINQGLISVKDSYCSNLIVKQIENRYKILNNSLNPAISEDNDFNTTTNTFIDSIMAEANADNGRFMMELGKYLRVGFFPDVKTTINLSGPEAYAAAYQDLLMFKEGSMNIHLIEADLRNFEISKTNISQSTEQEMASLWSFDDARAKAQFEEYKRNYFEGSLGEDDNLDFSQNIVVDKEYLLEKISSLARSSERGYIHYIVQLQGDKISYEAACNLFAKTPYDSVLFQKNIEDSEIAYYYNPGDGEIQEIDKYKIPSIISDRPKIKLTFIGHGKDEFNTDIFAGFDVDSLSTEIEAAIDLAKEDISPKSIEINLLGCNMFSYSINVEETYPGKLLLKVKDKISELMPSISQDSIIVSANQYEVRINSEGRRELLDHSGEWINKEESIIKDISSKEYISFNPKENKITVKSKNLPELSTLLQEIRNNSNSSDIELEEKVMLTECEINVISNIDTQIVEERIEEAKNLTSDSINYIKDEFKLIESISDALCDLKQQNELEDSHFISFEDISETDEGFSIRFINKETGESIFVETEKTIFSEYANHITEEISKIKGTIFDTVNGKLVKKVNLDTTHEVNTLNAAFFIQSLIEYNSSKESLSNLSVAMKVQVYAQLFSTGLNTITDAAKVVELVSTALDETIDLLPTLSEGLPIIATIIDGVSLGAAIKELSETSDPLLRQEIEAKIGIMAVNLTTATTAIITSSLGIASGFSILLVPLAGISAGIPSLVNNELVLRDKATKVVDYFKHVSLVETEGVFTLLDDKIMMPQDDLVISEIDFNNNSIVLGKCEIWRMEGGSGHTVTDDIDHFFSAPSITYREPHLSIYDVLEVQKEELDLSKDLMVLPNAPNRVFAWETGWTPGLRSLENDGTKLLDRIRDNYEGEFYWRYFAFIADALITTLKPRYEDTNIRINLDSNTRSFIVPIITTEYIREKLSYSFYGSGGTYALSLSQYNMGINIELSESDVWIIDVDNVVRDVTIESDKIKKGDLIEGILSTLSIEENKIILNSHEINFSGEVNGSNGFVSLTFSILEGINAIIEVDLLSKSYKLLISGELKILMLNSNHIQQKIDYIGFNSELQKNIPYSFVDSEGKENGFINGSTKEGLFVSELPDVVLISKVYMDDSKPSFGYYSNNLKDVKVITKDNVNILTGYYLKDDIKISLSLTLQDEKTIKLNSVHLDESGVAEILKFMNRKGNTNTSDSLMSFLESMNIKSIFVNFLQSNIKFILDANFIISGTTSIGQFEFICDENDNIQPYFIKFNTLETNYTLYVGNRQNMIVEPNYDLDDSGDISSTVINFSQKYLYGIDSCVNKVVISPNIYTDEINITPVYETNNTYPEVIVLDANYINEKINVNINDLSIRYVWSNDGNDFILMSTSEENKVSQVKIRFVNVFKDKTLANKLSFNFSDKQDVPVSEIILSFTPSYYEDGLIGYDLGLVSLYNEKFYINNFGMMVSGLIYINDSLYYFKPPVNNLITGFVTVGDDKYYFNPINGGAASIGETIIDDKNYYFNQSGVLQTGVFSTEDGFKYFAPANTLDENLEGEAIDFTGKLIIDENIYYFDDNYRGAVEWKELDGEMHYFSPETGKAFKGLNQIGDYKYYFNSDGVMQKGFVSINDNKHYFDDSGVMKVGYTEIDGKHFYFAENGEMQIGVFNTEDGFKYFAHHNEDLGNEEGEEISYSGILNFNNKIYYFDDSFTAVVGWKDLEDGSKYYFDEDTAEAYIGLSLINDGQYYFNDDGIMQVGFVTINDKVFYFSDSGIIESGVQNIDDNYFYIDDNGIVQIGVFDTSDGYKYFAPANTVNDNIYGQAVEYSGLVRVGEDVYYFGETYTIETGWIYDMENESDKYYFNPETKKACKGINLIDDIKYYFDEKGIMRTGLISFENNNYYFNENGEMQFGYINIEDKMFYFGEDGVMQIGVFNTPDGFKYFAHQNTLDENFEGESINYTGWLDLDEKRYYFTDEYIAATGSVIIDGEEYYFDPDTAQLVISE
Description: (FIG. 5A) LHD inhibits TcdB-induced cell rounding. CT26 cells in 12-well plates were exposed to HD or LHD at 750 ng/ml (50 times of TcdB concentration) or nothing for 1 hour, followed by exposure to TcdB at 15 ng/ml for 5 hours. (FIG. 5B) Western-blot analysis of non-glucosylated Rac1 in CT26 cells treated with TcdB in the presence or absence of LHD or HD. TcdB glucosylates Rac1 in cells, serving as a readout for toxin cytotoxicity. Quantitation of Rac1 levels in Western-blot was shown in low panel (*p<0.05). (FIG. 5C) CT26 cells were lysed, and the cytosolic fraction was exposed to TcdB (15 ng/ml) with or without HD at 750 ng/ml (50 times of TcdB concentration) or LHD at 1500 ng/ml (same molecular concentration as HD) or nothing for 1 h followed by Western Blot analysis using a monoclonal antibody that only recognizes non-glucosylated Rac1. β-actin was used as an equal loading control. Quantitation of Rac1 levels in Western-blot was shown in low panel (****p<0.0001).
It was reported that the human defensin protein HD5 (HD) could inhibit TcdB (Giesemann, Guttenberg et al. 2008). Therefore, we evaluated the inhibitory effects of LHD and HD on TcdB. Briefly, CT26 cells in 12-well plates were exposed to LHD, synthesized HD or PBS at 750 ng/ml (50 times of TcdB concentration) for 1 hr, followed by exposure to TcdB at 15 ng/ml for 5 hrs. Total cell lysates were subjected to 12% SDS-PAGE separation, and transferred onto a Nylon membrane. Following blocking for 1 hr at room temperature with 5% skim milk, the membrane was incubated overnight at 4° C. with RAC1 antibody (1:1000, Cat: 610650, BD Biosciences) and β-actin antibody (1:10000, Cat: A5441, Sigma-Aldrich).

B1: LHD: Fusion of phage phiC2 lysin catalytic domain (LCD, 179aa), (GGGGS)3 linker and human alpha-defensin 5; SEQ ID NO:1 (protein)
chain: MKICITVGHSILKSGACTSADGVVNEYQYNKSLAPVLADTFRKEGHKVDVIICPEKQFKTKNEEKSYKIPRVNSGGYDLLIELHLNASNGQGKGSEVLYYSNKGLEYATRICDKLGTVFKNRGAKLDKRLYILNSSKPTAVLIESFFCDNKEDYDKAKKLGHEGIAKLIVEGVLNKNINGGGGSGGGGSGGGGSATCYCRTGRCATRESLSGVCEISGRLYRLCCR
MIC (C. difficile R20291 [1]): 0.78 µg/mL | lytic activity after treatment with intestinal contents (C. difficile R20291 [2]): did not affect lytic activity | lytic activity (drop in OD600) (C. difficile R20291 [3]): potent lytic activities | lytic activity (drop in OD600) ([4]; different types of clinical epidemic strains, 200 μg/ml): potent lytic activities | lytic activity compared with LCD ([4]; strain M120, p<0.05): more potent than LCD | lytic activity compared with LCD ([4]; strains VP110463, CD630, LC693 and 1377): slightly more potent | lytic activity at pH (C. difficile R20291 [5]; PH of 5, R20291): partially active | lytic activity at pH (C. difficile R20291 [5]; PHs of 2, 3, and 4, R20291): lost almost all activity | lytic activity at pH (C. difficile R20291 [5]; PHs of 6 and 7, 200 μg/ml, R20291): more efficiently | cell rounding caused by TcdB [6]: decreased cell rounding; also recorded: comparable to human defensin peptide HD5 | non-glucosylated Rac1 in cells (readout of cytotoxicity of TcdB) [6]: significant increase
